The record followed here is article PMC314469, “Protein Interaction Networks by Proteome Peptide Scanning” (PLoS Biology, 2004).

Sequences and labels used below:
T1: Abp1 SH3 (ABP1_YEAST), P15891
T1 chain: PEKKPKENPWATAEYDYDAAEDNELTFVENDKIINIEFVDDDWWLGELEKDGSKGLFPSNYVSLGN

The test deals with T1, Abp1 SH3 (ABP1_YEAST), P15891. Nature of the test: SPOT array.
As for NSSATKTPFVRRP [YGR285C 16-28], the normalised SPOT signal, Boehringer light units (BLU); mean over the file's lines of this peptide stood at 4320.
The molecule NRPAIRIPSLKKP [YML102W 307-319] displayed a normalised SPOT signal, Boehringer light units (BLU); mean over the file's lines of this peptide of 5260.
The result for NVDDSVLRQKPDKP [YMR032W 377-390] reads 116; that for NSSFFNQPPVHRP [YPR185W 391-403], 20.4; that for NSSQRSQLRFPEKP [YNL139C 1491-1504], 705.
The result for NRPDTLDPALLRP [YOR259C 328-340] reads 0.
The result for NRPDMIDPAMLRP [YLL034C 677-689] reads 19.2.
For the molecule NLSVRSKRLFPVRP [YAL040C 532-545], the normalised SPOT signal, Boehringer light units (BLU); mean over the file's lines of this peptide worked out at 326.
The same measure for NLLLLDADNFPIKP [YBR015C 261-274]: 169.
The same measure for NSNGPTPAVLPQKP [YDL053C 27-40]: 56; for NSEMASLPISPRP [YDR359C 196-208]: 64.9; for NKTFFLKPPIGRP [YBR182C 407-419]: 7480.
The same measure for NRMKIMMSMEPKKP [YDL240W 709-722]: 810.
NRIQGNLHFAPGKP [YAL042W 215-228] had a normalised SPOT signal, Boehringer light units (BLU); mean over the file's lines of this peptide of 253.
For NRPSVSHSQSPKRP [YNL080C 288-301], the normalised SPOT signal, Boehringer light units (BLU); mean over the file's lines of this peptide is 704.
In the case of NNNNLDKPKVKRP [YOL148C 556-568], the normalised SPOT signal, Boehringer light units (BLU); mean over the file's lines of this peptide is 8720.
The result for NVLFIKIPMFLRP [YGL195W 2278-2290] reads 79.2; that for NSAPQLTVPEPSKP [YNL034W 542-555], 89.3; that for NRTQRKTPTVIRP [YPL093W 23-35], 330.
The result for NTMVEMKRKKPVRP [YDR436W 382-395] reads 1120; that for NSMTGIAQILPTKP [YLR082C 61-74], 185.
The result for NNSGTGFPELYKP [YDR527W 27-39] reads 24.7.
Consider NNPSNSIPKIEKP [YCL014W 1345-1357], for which the normalised SPOT signal, Boehringer light units (BLU); mean over the file's lines of this peptide was found to be 108.
The same measure for NKSKFTDMLDPEKP [YBR033W 382-395]: 160; for NRADTLDPALLRP [YDR394W 319-331]: 87.6.
The result for NMPFTLNQSHPFKP [YMR067C 315-328] reads 140; that for NLRGRIEFQPPLKP [YMR020W 267-280], 235.
In the case of NNPPQMVPKGVRP [YOR188W 1010-1022], the normalised SPOT signal, Boehringer light units (BLU); mean over the file's lines of this peptide amounted to 1040.
Molecule NPELEKLSVHPLKP [YNL106C 1166-1179] showed a normalised SPOT signal, Boehringer light units (BLU); mean over the file's lines of this peptide of 66.1.
The result for NPVVATDPVAAKP [YFL049W 597-609] reads 79; that for NRPNTLDPALLRP [YKL145W 356-368], 89.2.
NRNTLSTPEEKKP [YER109C 669-681] returned a normalised SPOT signal, Boehringer light units (BLU); mean over the file's lines of this peptide of 201.
The same measure for NSTAAAPIAAPKKP [YGL025C 234-247]: 201; for NRPNSVDPALRRP [YLR397C 390-402]: 225.
The same measure for NLVQSIDPNHSKP [YPL075W 339-351]: 169; for NRPDQIDPAILRP [YDL126C 634-646]: 45.4.
The same measure for NLANGLMDTMPNKP [YBL084C 527-540]: 33.5; for NLTTTSKPSLPEKP [YPR171W 329-342]: 610.
NKRDKKKKKYPRKP [YDR485C 329-342] gave a normalised SPOT signal, Boehringer light units (BLU); mean over the file's lines of this peptide of 0.
For the molecule NQTPAQGPPLRRP [YDR479C 205-217], the normalised SPOT signal, Boehringer light units (BLU); mean over the file's lines of this peptide is 8650.
NPIEHVKPIHIKP [YLR201C 20-32] showed a normalised SPOT signal, Boehringer light units (BLU); mean over the file's lines of this peptide of 66.7.
The same measure for NLKIDSAPAYLKP [YKR011C 56-68]: 112; for NPAPLTNTYIPYKP [YML020W 157-170]: 150; for NSLDLNQADNPLRP [YLL019C 65-78]: 23.6.
In turn, NLVNIWKPDFERP [YJR140C 1438-1450] showed a normalised SPOT signal, Boehringer light units (BLU); mean over the file's lines of this peptide of 130.
NSQPVSYPRVSKP [YPL007C 81-93]: the normalised SPOT signal, Boehringer light units (BLU); mean over the file's lines of this peptide came out at 220.
As for NSLIIGVDIVPMKP [YCL054W 71-84], the normalised SPOT signal, Boehringer light units (BLU); mean over the file's lines of this peptide came to 175.
The molecule NSSSKKTSSHPSRP [YER047C 483-496] displayed a normalised SPOT signal, Boehringer light units (BLU); mean over the file's lines of this peptide of 73.4.
NRLDILDPALLRP [YGL048C 295-307] returned a normalised SPOT signal, Boehringer light units (BLU); mean over the file's lines of this peptide of 101.
With NNNQQKTPKLIKP [YJL087C 616-628], the normalised SPOT signal, Boehringer light units (BLU); mean over the file's lines of this peptide was 48.3.
The same measure for NRPDAVDPALRRP [YGR270W 562-574]: 53.9; for NPSNKSIPFWKRP [YNL034W 381-393]: 342.
Molecule NSLLVLDPTYVKP [YOR198C 294-306] displayed a normalised SPOT signal, Boehringer light units (BLU); mean over the file's lines of this peptide of 14.6.
The result for NLGDIVTPTIQRP [YPL070W 456-468] reads 45.9.
